Laboratory results: patent US20110039788, “COMPOSITIONS, METHODS AND KITS FOR DETECTING AND TREATING CANCER” (University of Miami, published 2011)

Key:
[1] = target: T1, TCF4 (TCF7L2) DNA-binding domain (UniProt Q9NQB0 Q9NQB0:265-496); experiment: EMSA; high affinity; 1 ug protein in 15 ul; conditions: tags: His (pET28A), expressed in E. coli; label: 32P 5' end
Experimental: (§1) Double-stranded DNA oligonucleotides (30 mers) containing the genomic TBE sites T1-T4 with flanking sequences were 5′ end-labeled with ³²P and 5000 cpm/μl of labeled probe was incubated with 1 μg of recombinant His-TCF4 protein in a total volume of 15 μl binding buffer. For competition and supershift experiments, His-TCF4 was pre-incubated with unlabelled DNA oligonucleotides at 400-fold excess or with 1-5 μg of anti-6× His tag antibody (Abcam) for 10 minutes prior to addition of labeled probe. Samples were separated on 5% non-denaturing polyacrylamide gels for 1 h at 400V. Protein-DNA complexes were detected by phosphoimaging on a Storm 840 Scanner (Molecular Dynamics).
To elucidate the molecular pathways acting upstream of Lbh, murine Lbh genomic sequences were screened for potential transcription factor binding sites. This in silico search identified four conserved putative TCF/LEF-binding elements (TBEs) in the Lbh gene locus. Two TBEs with the consensus motif 5′-CTTTG(A/T)(A/T)-3′ were located within an enhancer region (E1)-6245 (T1) and −6195 (T2) base pairs (bp) upstream of the Lbh transcriptional start site (FIG. 1A). In addition, two consensus TBEs were found in an enhancer (E2) contained within the first intron of the Lbh gene at positions +1558 (T3) and +2145 (T4) by (FIG. 1A). To directly assay for TCF binding to these sites, electrophoretic mobility shift analysis (EMSA) was performed. Recombinant TCF4 protein bound with high affinity to all Lbh-specific TBEs (T1-T4), but not to an unspecific oligonucleotide (FIG. 1B). TCF4 binding to these sites was efficiently competed by addition of 400-fold excess of unlabeled wild-type (+) oligonucleotide as well as increasing amounts of an antibody against recombinant TCF4 protein, but not by addition of 400-fold excess of mutant (m) oligonucleotide (FIGS. 1B, C). Subsequently, cell-based reporter assays were performed to test whether the Lbh genespecific TBE sites (T1-T4) were functionally responsive to overexpression of β-catenin, which is the Wnt-inducible component of the TCF/β-catenin transcriptional complex. […]

[2] = target: T1, TCF4 (TCF7L2) DNA-binding domain; experiment: EMSA; high affinity; anti-His supershift assay; conditions: tags: His (pET28A), expressed in E. coli; label: 32P 5' end
Experimental: as §1

T1 sequence (Q9NQB0 265-496, one chain of several): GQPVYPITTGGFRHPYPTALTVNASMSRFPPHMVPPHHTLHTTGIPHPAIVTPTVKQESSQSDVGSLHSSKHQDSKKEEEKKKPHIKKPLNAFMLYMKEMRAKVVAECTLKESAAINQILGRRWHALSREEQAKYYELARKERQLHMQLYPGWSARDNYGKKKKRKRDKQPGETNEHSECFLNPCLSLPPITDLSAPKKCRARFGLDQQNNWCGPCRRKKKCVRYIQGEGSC

| Binder | binding result [1] | binding result [2] |
| --- | --- | --- |
| Lbh TBE T1 (dsDNA) DNA 1: CCTTTGAATC DNA 2: GATTCAAAGG | binds | – |
| Lbh TBE T2 (dsDNA) DNA 1: TCTTTGATAT DNA 2: ATATCAAAGA | binds | – |
| Lbh TBE T3 (dsDNA) DNA 1: GCTTTGAAGA DNA 2: TCTTCAAAGC | – | binds |
| Lbh TBE T4 (dsDNA) DNA 1: ACTTTGTACT DNA 2: AGTACAAAGT | binds | – |
